Measured values reported in the Human Domainome abundance scans (Beltran et al. 2025).
± gives the uncertainty stated by the source.

B1: Friend leukemia integration 1 transcription factor, residues 116 to 197; numbered along this chain, Q01543 (parent)
chain: NMTTNERRVIVPADPTLWTQEHVRQWLEWAIKEYSLMEIDTSFFQNMDGKELCKMNKEDFLRATTLYNTEVLLSHLSYLRES

Variants of: B1
Test: abundance fitness (aPCA) (normalised: wild type 0, dead -1); higher = more abundant; growth selection in yeast, the domain comes from the species named
Conditions: Homo sapiens

Row | Variant | abundance fitness
1 | NMTTKERRVIVPADPTLWTQEHVRQWLEWAIKEYSLMEIDTSFFQNMDGKELCKMNKEDFLRATTLYNTEVLLSHLSYLRES | 0.004 ± 0.064
2 | NMTTMERRVIVPADPTLWTQEHVRQWLEWAIKEYSLMEIDTSFFQNMDGKELCKMNKEDFLRATTLYNTEVLLSHLSYLRES | -0.127 ± 0.12
3 | NMTTDERRVIVPADPTLWTQEHVRQWLEWAIKEYSLMEIDTSFFQNMDGKELCKMNKEDFLRATTLYNTEVLLSHLSYLRES | -0.011 ± 0.13
4 | NMTTEERRVIVPADPTLWTQEHVRQWLEWAIKEYSLMEIDTSFFQNMDGKELCKMNKEDFLRATTLYNTEVLLSHLSYLRES | -0.039 ± 0.099
5 | NMTTFERRVIVPADPTLWTQEHVRQWLEWAIKEYSLMEIDTSFFQNMDGKELCKMNKEDFLRATTLYNTEVLLSHLSYLRES | -0.089 ± 0.21
6 | NMTTGERRVIVPADPTLWTQEHVRQWLEWAIKEYSLMEIDTSFFQNMDGKELCKMNKEDFLRATTLYNTEVLLSHLSYLRES | -0.042 ± 0.066
7 | NMTTCERRVIVPADPTLWTQEHVRQWLEWAIKEYSLMEIDTSFFQNMDGKELCKMNKEDFLRATTLYNTEVLLSHLSYLRES | 0.019 ± 0.2
8 | NMTTHERRVIVPADPTLWTQEHVRQWLEWAIKEYSLMEIDTSFFQNMDGKELCKMNKEDFLRATTLYNTEVLLSHLSYLRES | -0.06 ± 0.23
9 | NMWTNERRVIVPADPTLWTQEHVRQWLEWAIKEYSLMEIDTSFFQNMDGKELCKMNKEDFLRATTLYNTEVLLSHLSYLRES | -0.022 ± 0.096
10 | NMRTNERRVIVPADPTLWTQEHVRQWLEWAIKEYSLMEIDTSFFQNMDGKELCKMNKEDFLRATTLYNTEVLLSHLSYLRES | -0.169 ± 0.094
11 | NMMTNERRVIVPADPTLWTQEHVRQWLEWAIKEYSLMEIDTSFFQNMDGKELCKMNKEDFLRATTLYNTEVLLSHLSYLRES | 0.037 ± 0.11
12 | NMQTNERRVIVPADPTLWTQEHVRQWLEWAIKEYSLMEIDTSFFQNMDGKELCKMNKEDFLRATTLYNTEVLLSHLSYLRES | -0.136 ± 0.12
13 | NMKTNERRVIVPADPTLWTQEHVRQWLEWAIKEYSLMEIDTSFFQNMDGKELCKMNKEDFLRATTLYNTEVLLSHLSYLRES | 0.185 ± 0.18
14 | NMVTNERRVIVPADPTLWTQEHVRQWLEWAIKEYSLMEIDTSFFQNMDGKELCKMNKEDFLRATTLYNTEVLLSHLSYLRES | -0.201 ± 0.13
15 | NMSTNERRVIVPADPTLWTQEHVRQWLEWAIKEYSLMEIDTSFFQNMDGKELCKMNKEDFLRATTLYNTEVLLSHLSYLRES | 0.06 ± 0.14
16 | NMHTNERRVIVPADPTLWTQEHVRQWLEWAIKEYSLMEIDTSFFQNMDGKELCKMNKEDFLRATTLYNTEVLLSHLSYLRES | -0.359 ± 0.15
17 | NMITNERRVIVPADPTLWTQEHVRQWLEWAIKEYSLMEIDTSFFQNMDGKELCKMNKEDFLRATTLYNTEVLLSHLSYLRES | -0.078 ± 0.21

Row | Variant | abundance fitness
18 | NMNTNERRVIVPADPTLWTQEHVRQWLEWAIKEYSLMEIDTSFFQNMDGKELCKMNKEDFLRATTLYNTEVLLSHLSYLRES | -0.076 ± 0.44
19 | NMPTNERRVIVPADPTLWTQEHVRQWLEWAIKEYSLMEIDTSFFQNMDGKELCKMNKEDFLRATTLYNTEVLLSHLSYLRES | -0.246 ± 0.089
20 | NMYTNERRVIVPADPTLWTQEHVRQWLEWAIKEYSLMEIDTSFFQNMDGKELCKMNKEDFLRATTLYNTEVLLSHLSYLRES | -0.201 ± 0.44
21 | NMLTNERRVIVPADPTLWTQEHVRQWLEWAIKEYSLMEIDTSFFQNMDGKELCKMNKEDFLRATTLYNTEVLLSHLSYLRES | -0.076 ± 0.076
22 | NMTFNERRVIVPADPTLWTQEHVRQWLEWAIKEYSLMEIDTSFFQNMDGKELCKMNKEDFLRATTLYNTEVLLSHLSYLRES | -0.048 ± 0.12
23 | NMTGNERRVIVPADPTLWTQEHVRQWLEWAIKEYSLMEIDTSFFQNMDGKELCKMNKEDFLRATTLYNTEVLLSHLSYLRES | -0.065 ± 0.11
24 | NMTVNERRVIVPADPTLWTQEHVRQWLEWAIKEYSLMEIDTSFFQNMDGKELCKMNKEDFLRATTLYNTEVLLSHLSYLRES | 0.003 ± 0.09
25 | NMTWNERRVIVPADPTLWTQEHVRQWLEWAIKEYSLMEIDTSFFQNMDGKELCKMNKEDFLRATTLYNTEVLLSHLSYLRES | -0.03 ± 0.17
26 | NMTKNERRVIVPADPTLWTQEHVRQWLEWAIKEYSLMEIDTSFFQNMDGKELCKMNKEDFLRATTLYNTEVLLSHLSYLRES | -0.005 ± 0.1
27 | NMTPNERRVIVPADPTLWTQEHVRQWLEWAIKEYSLMEIDTSFFQNMDGKELCKMNKEDFLRATTLYNTEVLLSHLSYLRES | -0.037 ± 0.095
28 | NMTNNERRVIVPADPTLWTQEHVRQWLEWAIKEYSLMEIDTSFFQNMDGKELCKMNKEDFLRATTLYNTEVLLSHLSYLRES | 0.076 ± 0.23
29 | NMTHNERRVIVPADPTLWTQEHVRQWLEWAIKEYSLMEIDTSFFQNMDGKELCKMNKEDFLRATTLYNTEVLLSHLSYLRES | -0.115 ± 0.1
30 | NMTANERRVIVPADPTLWTQEHVRQWLEWAIKEYSLMEIDTSFFQNMDGKELCKMNKEDFLRATTLYNTEVLLSHLSYLRES | 0.069 ± 0.089
31 | NMTDNERRVIVPADPTLWTQEHVRQWLEWAIKEYSLMEIDTSFFQNMDGKELCKMNKEDFLRATTLYNTEVLLSHLSYLRES | 0.045 ± 0.14
32 | NMTQNERRVIVPADPTLWTQEHVRQWLEWAIKEYSLMEIDTSFFQNMDGKELCKMNKEDFLRATTLYNTEVLLSHLSYLRES | -0.085 ± 0.092
33 | NMTINERRVIVPADPTLWTQEHVRQWLEWAIKEYSLMEIDTSFFQNMDGKELCKMNKEDFLRATTLYNTEVLLSHLSYLRES | 0.017 ± 0.15
34 | NMTMNERRVIVPADPTLWTQEHVRQWLEWAIKEYSLMEIDTSFFQNMDGKELCKMNKEDFLRATTLYNTEVLLSHLSYLRES | -0.075 ± 0.18
